Reference: article PMC5302901

Molecular target: Grb2 (UniProt Q07883)
Assay: IP of Grb2, blot for CD22
Settings: reference: CD22-WT; sites Y773,Y783,Y828,Y843,Y863

Substance: CD22 (from UniProt P35329) F1/2/4/5/6
- binding against the reference: lost
